The series deals with the molecule itself. As to the kind of experiment: cryo-EM structure; 30 uM ParM in polymerisation buffer (30 mM Tris-HCl, 25 mM KCl, 2 mM MgCl2, 1 mM DTT, pH 7.5) with 5 mM AMPPNP, 5 min at room temperature; filaments spun down and resuspended; helical reconstruction at 8.5 Å.

B1: ParM (actin-like protein of the ParMRC system of Escherichia coli R1 plasmid), wild type (natural protein)
chain: MLVFIDDGSTNIKLQWQESDGTIKQHISPNSFKREWAVSFGDKKVFNYTLNGEQYSFDPISPDAVVTTNIAWQYSDVNVVAVHHALLTSGLPVSEVDIVCTLPLTEYYDRNNQPNTENIERKKANFRKKITLNGGDTFTIKDVKVMPESIPAGYEVLQELDELDSLLIIDLGGTTLDISQVMGKLSGISKIYGDSSLGVSLVTSAVKDALSLARTKGSSYLADDIIIHRKDNNYLKQRINDENKISIVTEAMNEALRKLEQRVLNTLNEFSGYTHVMVIGGGAELICDAVKKHTQIRDERFFKTNNSQYDLVNGMYLIGN
notes: ParM, plasmid segregation protein of actin fold, encoded by Escherichia coli R1 plasmid; Forms double-helical filaments of two protofilaments with AMPPNP or ATP; also called ParM protein; wild type protein; source: E. coli BL21-AI, plasmid pJSC1, in cell lysate for the polymerisation assay
Take B1: the binding result is recorded as “binds”.

These data come from article PMC3794156, “Structure of the ParM filament at 8.5 Å resolution” (Journal of Structural Biology, 2013).
